# Article PMC11252331
# pKd: −log10 of the molar value.
# Assays:
# [1] = target: untagged ∆N∆PDZ HTRA1 R274Q used for NMR DOSY (human) (UniProt Q92743); assay: NMR DOSY; 100 µM HTRA1 alone, 50 mM potassium phosphate pH 6.7, 10% D2O, 25 °C
# [2] = target: ΔN HTRA1 A252T (human) (UniProt Q92743); assay: cross-linking; 0.5 µM HTRA1, 50 mM NaPi, 50 mM NaCl pH 8.0, 37 °C, 0.5% glutaraldehyde 2 min; silver staining or Western blot; single proteins or mixtures
# [3] = target: ΔN HTRA1 A252T (human) (UniProt Q92743); assay: SEC; analytical SEC, Agilent AdvanceBio SEC 300 Å column, 2x PBS, 10 µl of 10 mg/ml protein (273 µM monomer equivalent; A173T 6.5 mg/ml, 178 µM); single proteins or mixtures
# [4] = target: ΔN HTRA1 A252T (human) (UniProt Q92743); assay: SEC-MALS; Superdex 200 Increase 10/300, 2x PBS, 56 µl of 10 mg/ml protein (273 µM monomer equivalent; A173T 6.5 mg/ml, 178 µM); single proteins or D174R-S328A + R274Q mixed at a 1:1 ratio
# [5] = target: ΔN HTRA1 D174R-S328A (proteolytically inactive corrector variant) (human) (UniProt Q92743); assay: as above
# [6] = target: ΔN HTRA1 wild type (human HTRA1 lacking the N-terminal IGFBP7-like fragment) (human) (UniProt Q92743); assay: native MS; binding experiments, 5 µM protein with VDAC2 peptide added at molar ratios, 200 mM ammonium acetate pH 6.8
# [7] = target: ΔN HTRA1 wild type (human HTRA1 lacking the N-terminal IGFBP7-like fragment) (human) (UniProt Q92743); assay: cross-linking; 0.5 µM HTRA1, 50 mM NaPi, 50 mM NaCl pH 8.0, 37 °C, 0.5% glutaraldehyde 2 min; silver staining or Western blot; single proteins or mixtures
# [8] = target: ΔN HTRA1 wild type (human HTRA1 lacking the N-terminal IGFBP7-like fragment) (human) (UniProt Q92743); assay: SEC; analytical SEC, Agilent AdvanceBio SEC 300 Å column, 2x PBS, 10 µl of 10 mg/ml protein (273 µM monomer equivalent; A173T 6.5 mg/ml, 178 µM); single proteins or mixtures
# [9] = target: ΔN HTRA1 wild type (human HTRA1 lacking the N-terminal IGFBP7-like fragment) (human) (UniProt Q92743); assay: SEC-MALS; Superdex 200 Increase 10/300, 2x PBS, 56 µl of 10 mg/ml protein (273 µM monomer equivalent; A173T 6.5 mg/ml, 178 µM); single proteins or D174R-S328A + R274Q mixed at a 1:1 ratio
# [10] = target: VDAC2 peptide (C-terminus of Voltage Dependent Anion-selective Channel isoform 2); assay: VDAC2 titration of cleavage rate of peptidic fluorescence-quenched substrate, fitted to the hyperbolic weak-binding equation; settings: substrate 2 µM; HTRA1 wt 30 nM; R274Q 300 nM
substance,measurement,setting,value
untagged ∆N∆PDZ HTRA1 R274Q used for NMR DOSY (from UniProt Q92743 158-375) (domain or fragment),stoichiometry N,[1],3
ΔN HTRA1 A252T (from UniProt Q92743 158-480) (domain or fragment),stoichiometry N,[2],3
same,stoichiometry N,[3],3
same,stoichiometry N,[4],3
ΔN HTRA1 D174R-S328A (proteolytically inactive corrector variant) (from UniProt Q92743 158-480) (domain or fragment),stoichiometry N,[5],3
ΔN HTRA1 wild type (human HTRA1 lacking the N-terminal IGFBP7-like fragment) (from UniProt Q92743 158-480) (domain or fragment),stoichiometry N,[6],3
same,stoichiometry N,[7],3
same,stoichiometry N,[8],3
same,stoichiometry N,[9],3
ΔN HTRA1 wild type (human HTRA1 lacking the N-terminal IGFBP7-like fragment) (from UniProt Q92743) R274Q,pKd,[10],4.92
